Results reported in patent US20100092974A1, “METHODS FOR SCREENING FOR MODULATORS OF CCRL2” (The Board of Trustees of the Leland Stanford Junior …, priority 2008, published 2010).

Columns and labels:
[1] = target: T1, mCCRL2 (Mus musculus, UniProt O35457); experiment: intracellular calcium mobilization, CCRL2/HEK293 transfectants; assay type: cell-based; conditions: HEK293 background, alone or in combination
T1 construct: The coding regions of mCCRL2, huCCRL2, mCRTH2, and huCCR10 were amplified from genomic DNA; expressed in transfected cells
T1 sequence (O35457 1-360): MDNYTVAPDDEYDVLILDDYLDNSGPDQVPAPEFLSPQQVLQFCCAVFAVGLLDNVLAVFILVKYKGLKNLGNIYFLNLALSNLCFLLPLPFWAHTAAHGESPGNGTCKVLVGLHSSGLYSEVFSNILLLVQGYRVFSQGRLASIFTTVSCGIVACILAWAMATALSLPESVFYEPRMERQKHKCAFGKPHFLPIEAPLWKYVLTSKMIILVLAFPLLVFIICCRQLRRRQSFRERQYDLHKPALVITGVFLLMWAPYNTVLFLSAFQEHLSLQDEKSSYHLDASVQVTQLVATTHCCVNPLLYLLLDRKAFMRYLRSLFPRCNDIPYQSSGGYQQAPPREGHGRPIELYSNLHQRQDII
Experimental: Chemoattractant-stimulated Ca^2+-mobilization was performed following Alliance for Cell Signaling protocol ID PP00000210. Cells (3×10^6/mL) were loaded with 4 μM Fluo4-AM and 0.16% Pluronic acid F-127 (Molecular Probes) in modified Iscove's medium (Iscove's medium with 1% heat inactivated bovine calf serum and 2 mM L-glutamine, Invitrogen) for 30 minutes at 37° C. The samples were mixed every 10 minutes during loading, washed once, resuspended at up to 2×10^6/mL in the same buffer, and allowed to rest in the dark for 30 minutes at room temperature. Chemoattractant-stimulated change in Ca^2+-sensitive fluorescence of Fluo-4 was measured over real-time with a FACsScan flow cytometer and CellQuest software (BD Biosciences) at room temperature under constant stirring (500 rpm). Fluorescent data were acquired continuously up to 1024 seconds at 1-second intervals. The samples were analyzed for 45 seconds to establish basal state, removed from the nozzle to add the stimuli, and then returned to the nozzle. Mean channel fluorescence over time was analyzed with FlowJo (TreeStar, Ashland, Oreg., USA) software. […] 500 μl of these chemerin-loaded cells were added to mCMKLR1/L1.2 cells loaded with Fluo4-AM, and calcium mobilization was evaluated.

[2] = target: T1, mCCRL2; experiment: chemerin binding/anti-mCCRL2 mAb displacement on peritoneal mast cells (flow cytometry); conditions: 1000 nM
[3] = target: T1, mCCRL2; experiment: in vitro transwell chemotaxis, mCCRL2/L1.2 transfectants; assay type: cell-based
Experimental: For migration experiments using cell lines, 2.5×10^5 cells/100 μl chemotaxis media (RPMI+10% fetal calf serum) were added to the top wells of 5-um pore transwell inserts (Costar, Corning, N.Y., USA), and test samples in 600 μl media were added to the bottom wells. After incubating the transwell plates for 1.5 hours at 37° C., the bottom wells were harvested and flow cytometry was used to assess migration. For primary cell chemotaxis, 1×10^6 cells/100 μl were added to the top well, and, following a 2 hour incubation at 37° C., polystyrene beads (15.0 μm diameter, Polysciences, Warrington, Pa., USA) were added to each well to facilitate normalization of the cell count. The cells were then stained for c-kit, F4/80, and/or CD11b expression and analyzed by flow cytometry. A ratio was generated and percent input migration was calculated.

[4] = target: T2, mouse CMKLR1 (chemokine-like receptor 1), untagged (mouse, UniProt P97468 1-371); experiment: radioligand competition on L1.2 transfectants
T2 construct: whole, on cells; also called mCMKLR1; mCMKLR1/L1.2
T2 sequence (looked up): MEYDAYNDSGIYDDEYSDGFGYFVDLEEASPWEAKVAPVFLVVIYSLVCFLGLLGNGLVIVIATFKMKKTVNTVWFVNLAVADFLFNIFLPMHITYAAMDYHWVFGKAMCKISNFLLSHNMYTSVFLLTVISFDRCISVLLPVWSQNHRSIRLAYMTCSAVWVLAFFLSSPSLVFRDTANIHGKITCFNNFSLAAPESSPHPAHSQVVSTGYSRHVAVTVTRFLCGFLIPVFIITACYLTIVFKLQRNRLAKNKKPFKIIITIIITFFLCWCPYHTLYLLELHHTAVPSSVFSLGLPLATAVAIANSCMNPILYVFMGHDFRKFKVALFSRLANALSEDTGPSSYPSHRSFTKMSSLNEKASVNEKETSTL

[5] = target: T2, mouse CMKLR1 (chemokine-like receptor …); experiment: radioligand competition on L1.2 transfectants, 125I-chemerin 21-148 displaced by the peptide … [panel B, legend box]
[6] = target: T2, mouse CMKLR1 (chemokine-like receptor …); experiment: radioligand competition on L1.2 transfectants; displaces 125I-chemerin 21-148; 9-mer peptide … on CMKLR1
[7] = target: T3, mouse CCRL2 (chemokine (CC motif) receptor-like 2), untagged (mouse, UniProt O35457 1-360); experiment: flow cytometry; chemerin inhibits staining of mouse peritoneal mast cells by the competitor anti-mCCRL2 BZ5B8; chemerin blocks anti-mCCRL2 mAb staining of mouse peritoneal mast cells
T3 construct: whole, on cells; also called mCCRL2; mCCRL2/L1.2
T3 sequence (looked up): T1 sequence (O35457 1-360)

Molecule: CCL2: chemokine purchased from R&D Systems
- agonism, intracellular calcium mobilization [1]: neither CCL2 nor chemerin functioned as agonists
- effect on CCRL2 staining [2]: no effect
- synergy of CCL2 and chemerin in transwell migration ([3]; CCL2 with chemerin): did not synergize
- transwell migration ([3]; range of doses, CXCL12 and CCL19 act via endogenous CXCR4 and CCR7): did not induce migration

B1: bioactive 9-mer carboxyl-terminal chemerin peptide (residues 149-157) (peptide)
peptide: YFPGQFAFS
notes: Synthetic peptide; also called bioactive chemerin peptide
- fold less potent (against chemerin protein) [4]: 10 fold
- EC50 [5]: 29 nM
- EC50 [6]: 26.2 nM

B2: human chemerin (as used to block anti-mCCRL2 staining, FIG. 6 Panel A) (ligand, UniProt Q99969 21-157, looked up)
chain: ELTEAQRRGLQVALEEFHKHPPVQWAFQETSVESAVDTPFPAGIFVRLEFKLQQTSCRKRDWKKPECKVRPNGRKRKCLACIKLGSEDKVLGRLVHCPIETQVLREAEEHQETQCLRVQRAGEDPHSFYFPGQFAFS
- EC50 [7]: 21 nM
